Earlier results, collected in paper PMC12851578.

Target: F-actin (Oryctolagus cuniculus) (UniProt P68135)
Details: cited from earlier work

In the case of LifeAct (from UniProt Q08641), the Kd is given as 2.2 µM.
